US20070036814A1

Tests used:
fibrinogen = test: cell-based or functional assay
[1] = target: canine fibrinogen (canine) (UniProt P68213); test: cell-based or functional assay

Row | Substance | Inhibiting concentration, inhibition of clumping by lysate (fibrinogen) | titre in microtitre clumping assay (Newman wild-type) (fibrinogen) | decrease in attachment of the fibrinogen receptor mutant to ex vivo polyvinyl chloride and polyethylene tubings exposed to canine blood [1] | loss of adherence of the fibrinogen receptor mutant (cIfA::Tn917) to canine fibrinogen coated PMMA coverslips [1]
1 | glutathione S-transferase fusion protein of CIfA regions R, W and M (residues 546-933) expressed from pCF25 (from UniProt Q53653 546-933) | > 300 micro g |  |  | 
2 | CIfA protein on the surface of S. aureus strain Newman cells (from UniProt Q53653 40-899) (receptor) |  | 2048 titre | > 80% | > 95%
3 | glutathione S-transferase fusion protein of CIfA residues 221-550 expressed from pCF31 (from UniProt Q53653 221-550) | 9.37 micro g |  |  | 
4 | glutathione S-transferase fusion protein of CIfA Region A (residues 23-550) expressed from pCF24 (from UniProt Q53653 23-550) | 9.37 micro g |  |  | 
